Reference: article PMC4814140

Target: Arabidopsis thaliana aquaporin AtTIP2;1 (Arabidopsis thaliana) (UniProt Q41951)
Test: crystal structure; AtTIP2;1 solubilised by n-octyl-β-D-glucoside, hanging drop vapor diffusion at room temperature, 50 mM magnesium/sodium acetate pH 5.0, 28% (v/v) PEG 400; space group I 4, 1.18 Å, partial twinning

stoichiometry N: 4
Substance: Arabidopsis thaliana aquaporin AtTIP2;1 (from UniProt Q41951 2-250) (natural protein)
